Experimental data: article PMC8113883, “Wild-type sTREM2 blocks Aβ aggregation and neurotoxicity, but the Alzheimer's R47H mutant increases Aβ aggregation” (The Journal of Biological Chemistry, 2021)

Target: T1, HiLyte Fluor 488-labeled Aβ42 oligomers (human, UniProt P05067 672-713, HiLyte Fluor 488 label (position not given))
T1 construct: amyloid beta peptide 1-42 (Aβ42), human; cut product of the amyloid precursor protein; Oligomeric species of the 6 h aggregation mixture, told apart from monomers by photobleaching; also called oligomeric Aβ; Aβ oligomers; source: bought: AnaSpec; aggregated at 0.5 μM in PBS pH 7.4 for 6 h in a shaking incubator
Assay: single-molecule TIRF two-color coincidence detection; HiLyte Fluor 488 Aβ aggregated 6 h (0.5 μM, PBS pH 7.4), dye-labeled sTREM2 added and imaged; monomers and oligomers told apart by photobleaching; chance coincidence subtracted
Conditions: both partners purified

B1: dye-labeled wild-type sTREM2 (TREM2 ectodomain) for TIRF imaging (domain or fragment, human, UniProt Q9NZC2 19-143, looked up)
chain: HNTTVFQGVAGQSLQVSCPYDSMKHWGRRKAWCRQLGEKGPCQRVVSTHNLWLLSFLRRWNGSTAITDDTLGGTLTITLRNLQPHDAGLYQCQSLHGSEADTLRKVLVEVLADPLDHRDAGDLWF
modifications: TAMRA dye (results) or AF647 (methods), position not stated
notes: TREM2, human, residues 19-143 (soluble ectodomain); also called TAMRA-dye labeled sTREM2; AF647-TREM2; source: Freestyle 293-F, transfected (pHLSec), purified from conditioned medium (IMAC, gel filtration); dye-labeled
- binding result: binds
